From publication PMC10397247
Read-outs that look alike come from different tables or passages of the source.

T1: 4H570-bN
T1 chain: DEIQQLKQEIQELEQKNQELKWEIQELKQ

T2: 4H3926-bN
T2 chain: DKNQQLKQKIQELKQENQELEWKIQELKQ

T3: 4H3858-bN
T3 chain: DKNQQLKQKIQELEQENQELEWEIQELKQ

T4: 4H626-bN
T4 chain: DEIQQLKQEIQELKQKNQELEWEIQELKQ

T5: 4H3628-bN
T5 chain: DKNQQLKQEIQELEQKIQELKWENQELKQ

T6: 4H687-bN
T6 chain: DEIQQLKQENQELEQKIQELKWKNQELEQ

T7: 4H906-bN
T7 chain: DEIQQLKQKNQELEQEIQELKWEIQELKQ

T8: 4H850-bN
T8 chain: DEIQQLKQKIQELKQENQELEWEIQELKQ

T9: 4H3974-bN
T9 chain: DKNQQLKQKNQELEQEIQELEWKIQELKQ

T10: 4H3817-bN
T10 chain: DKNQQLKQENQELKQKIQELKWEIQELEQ

T11: O9-bP
T11 chain: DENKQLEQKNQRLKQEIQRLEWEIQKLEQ

T12: 4H591-bN
T12 chain: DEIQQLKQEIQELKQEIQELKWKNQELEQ

T13: O9-bS
T13 chain: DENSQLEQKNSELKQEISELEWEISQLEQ

T14: O8-bS
T14 chain: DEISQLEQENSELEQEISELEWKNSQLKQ

T15: 4H3613-bN
T15 chain: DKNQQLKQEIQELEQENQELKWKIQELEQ


Legend:
Assay in all cases: two-hybrid library CCNG1;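 further: natural log of median RNA to DNA barcode read ratio; higher means stronger binding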
4H570-bN = biological target: T1, 4H570-bN
4H3926-bN = biological target: T2, 4H3926-bN
4H3858-bN = biological target: T3, 4H3858-bN
4H626-bN = biological target: T4, 4H626-bN
4H3628-bN = biological target: T5, 4H3628-bN
4H687-bN = biological target: T6, 4H687-bN
4H906-bN = biological target: T7, 4H906-bN
4H850-bN = biological target: T8, 4H850-bN
4H3974-bN = biological target: T9, 4H3974-bN
4H3817-bN = biological target: T10, 4H3817-bN
O9-bP = biological target: T11, O9-bP
4H591-bN = biological target: T12, 4H591-bN
O9-bS = biological target: T13, O9-bS
O8-bS = biological target: T14, O8-bS
4H3613-bN = biological target: T15, 4H3613-bN

interaction score (4H570-bN) | interaction score (4H3926-bN) | interaction score (4H3858-bN) | interaction score (4H626-bN) | interaction score (4H3628-bN) | interaction score (4H687-bN) | interaction score (4H906-bN) | interaction score (4H850-bN) | interaction score (4H3974-bN) | interaction score (4H3817-bN) | interaction score (O9-bP) | interaction score (4H591-bN) | interaction score (O9-bS; mean of both orientations) | interaction score (O9-bS) | interaction score (O8-bS) | interaction score (4H3613-bN) | Binder
-1.33 | -0.307 | -2.07 | -2.08 | -0.36 | -0.529 | 0.069 | -1.18 | -0.134 | -1.03 | -0.345 | -0.603 | – | – | – | – | DKNQQLKQEIQELEQKIQELKWENQELKQ [4H3628-bN]
– | – | – | – | – | – | – | – | – | – | – | – | -1.16 | – | – | – | DENSQLEQKNSELKQEISELEWEISQLEQ [O9-bS]
– | – | – | – | – | – | – | – | – | – | – | – | – | -0.376 | -2.12 | – | DEISQLEQENSELEQEISELEWKNSQLKQ [O8-bS]
-0.737 | 0.45 | -0.655 | -1.98 | -1.69 | – | -1.78 | -0.0632 | -1.53 | -0.783 | – | -0.893 | – | – | – | -0.839 | DKNQQLKQEIQELEQENQELKWKIQELEQ [4H3613-bN]
